Values of other authors, collected in PMC6653659.

Biological target: glucocorticoid receptor LBD (Homo sapiens) (UniProt P04150)

Kd: 1500 nM
Substance: glucocorticoid receptor LBD (from UniProt P04150)
